B1: ZBTB22 (parent)
chain: AVLAASSPYFHDQVLLKGMTSISL
B2: MED27 (parent)
chain: YNENVYTEDGKLDIWSKSNYQVFQ

Variants of: B1
Assay: protein stability index of a GFP-peptide fusion (GPS, HEK-293T) (PSI 1-6); higher = more stable
Conditions: c terminus: a fixed tail appended
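Also: lentivirally expressed fusions sorted by FACS into six bins by GFP to DsRed ratio, PSI derived from sequencing read proportions per bin multiplied by bin number.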

Protein stability index of substitutions, site by site:
G18: E 1.46
S7: V 2.11
V14: P 1.63
I22: K 2.13
T20: K 2.32
A5: L 2.21
Q13: K 1.92
S23: L 2.64
A1: I 2.99

Variants of: B2
Assay: as above
Conditions: c terminus: a fixed tail appended

Protein stability index, by site and new letter:
E8: Q 1.82; R 1.55; G 1.64; T 1.93; W 1.64; M 1.57; S 1.7; K 1.86; C 2.18; N 2.62; P 1.68; I 1.29; F 1.69; A 2.33; L 1.92; V 1.31; Y 1.97; D 1.84; H 2.07
V5: T 2.67; R 2.25; K 2.15; D 3.26; C 2.05; H 2.95; F 1.72; P 2.35; E 3.28; I 2.73; S 2.34; W 1.91; G 2.71; L 2.21; A 2.47; Q 3.06; M 2.1; Y 1.97; N 3.01
W15: Q 3.89; G 4.19; A 4.13; N 4.08; Y 3.19; D 4.42; I 3.31; V 3.5; R 3.64; E 4.12; H 3.85; T 3.7; S 3.83; P 3.74; K 4.03; C 3.74; F 2.81; L 3.32; M 3.3
I14: A 2.9; M 2.65; G 3.29; T 2.78; H 2.83; Y 1.95; N 3.28; Q 3.07; C 2.92; D 3.48; P 2.29; E 3.87; K 2.71; V 2.62; L 2.49; S 3.23; F 2.3; W 2.15; R 3.23
S16: G 2.33; N 2.12; C 2.06; F 2.87; P 2.05; A 2.45; K 2.04; Q 2.26; I 1.98; Y 2.02; D 3.25; E 2.6; T 2.38; H 1.93; R 1.78; W 1.91; V 2.06; M 1.81; L 1.82
T7: A 2.21; R 2.06; M 1.75; C 2.63; V 2.05; H 2.11; K 2.35; Y 2.46; W 1.07; Q 2.48; S 1.95; I 1.72; P 2.21; G 2.53; D 2.7; E 2.96; L 1.8; N 2.14; F 2.13
N4: V 1.89; W 1.15; M 2; K 1.8; S 1.52; C 2.29; F 1.93; G 2.37; R 2.31; P 1.96; T 2.21; Q 2.53; A 2.54; D 2.21; Y 1.47; L 1.99; H 2.04; I 2.04; E 2.73
G10: M 2.73; F 1.65; K 2.91; A 2.3; V 1.96; H 2.61; T 2.45; L 2.17; D 2.96; Y 1.76; R 2.21; S 2.23; E 2.65; N 2.54; P 2.42; I 1.93; Q 2.5; W 1.99; C 1.97
D13: H 2.44; N 1.76; A 2.12; S 1.92; L 1.69; G 1.88; C 2.09; V 3; Y 2.04; Q 2.05; F 1.84; P 2.81; M 1.79; R 2.32; I 2.06; W 2.46; K 2.55; E 2.36; T 1.63
L12: Q 3.1; M 2.07; K 2.33; Y 1.93; R 2.01; E 3.14; C 2.33; P 2.39; V 2.58; N 2.37; G 2.63; S 2.37; A 2.5; I 2.23; W 2.2; H 2.07; T 2.21; D 3.34; F 2.19
D9: K 2.02; F 1.76; Q 1.55; C 1.64; H 1.97; R 1.7; W 2.01; N 1.76; P 2.03; S 1.96; G 1.63; V 1.98; A 1.65; Y 2.03; T 1.8; I 1.71; E 2.37; L 1.77; M 1.69
Y6: A 2.62; W 2.04; Q 2.76; R 2.48; D 3.3; E 3.17; I 2.43; M 2.17; T 2.98; K 2.34; C 2.84; F 2.55; S 3.26; L 2.38; V 3.02; H 2.95; N 3; P 2.68; G 2.57
S18: A 2.34; C 1.86
N2: D 3.6; Q 2.33; C 2.47; E 3.95; M 2.01; T 1.95; V 3.18; F 2.26; Y 2.1; S 2.02; K 2.91; A 2.53; P 2.09; R 2.4; G 1.75; H 1.75; W 1.69; I 1.68; L 1.68
Y1: P 3.52; R 3.11; K 3.28; N 3.35; D 3.38; I 2.5; Q 3.74; G 3.7; S 3.23; V 3.67; L 3.2; W 2.93; F 2.27; A 2.86; M 3.52; H 3.23; T 3.4; C 2.9; E 4.04
K17: D 2.26; S 1.98; E 2.37; C 1.54; I 1.74; A 2.24; G 2.34; Y 1.98; P 2.68; Q 1.89; N 2.07; H 2.43; W 1.92; L 2.22; T 1.84; V 2.17; F 1.68; R 1.95; M 2.3
E3: V 1.69; Y 1.64; T 1.88; A 1.88; K 2.31; C 2.04; W 1.44; N 2.36; F 1.8; D 1.48; M 1.59; R 1.41; H 1.92; Q 2.17; G 2.34; S 1.76; L 1.48; I 1.81; P 1.31
K11: R 1.96; T 2.43; D 3.48; E 2.93; S 2.45; H 2.2; P 2.13; C 1.78; F 2.22; G 2.22; Y 1.94; L 1.59; V 2.04; A 2.27; W 2; I 2.71; Q 2.38; N 2.56; M 2.32
